According to US20240294635A1 (CHIA TAI TIANQING PHARMACEUTICAL GROUP, published 2024):

B1: hz3F10-1.1 (antibody, human IgG4 S228P, kappa, V domains shown)
VH: QVQLVQSGAEVKKPGSSVKVSCKASGYTFSRYWIEWVRQAPGQGLEWMGEFIPGSDTTNYAQKFQGRVTITADISTSTAYMELSSLRSEDTAVYYCARGGLRRMDYWGQGTLVTVSS
VL: DIQMTQSPSSLSASVGDRVTITCRASSSVSSTYLHWYQQKPGKAPKLLIYTTSTLASGVPSRFSGSGSGTDFTLTISSLQPEDFATYYCQQFSDSTWTFGQGTKLEIKR
notes: humanized 3F10, full-length heavy and light chains
B2: hz3F10-2.2 (antibody, human IgG4 S228P, kappa, V domains shown)
VH: QVQLVQSGAEVKKPGSSVKVSCKASGYTFSRYWIEWVRQAPGQGLEWMGEFIPGSDTTNYAQKFQGRVTITAEISTNTAYMELSSLRSEDTAVYYCARGGLRRMDYWGQGTLVTVSS
VL: DIQMTQSPSSLSASVGDRVTITCRASSSVSSTYLHWYQQKPGKAPKLLIYTTSTLASGVPSRFSGSGSGTDFTLTISSLQPEDFATYYCQQFSESTWTFGQGTKLEIKR
notes: as for B1
B3: hz3F10-5.1 (antibody, human IgG4 S228P, kappa, V domains shown)
VH: QVQLVQSGAEVKKPGSSVKVSCKASGYTFSRYWIEWVRQAPGQGLEWMGEFIPGSDTTNYAQKFQGRVTITADISTSTAYMELSSLRSEDTAVYYCARGGLRRMDYWGQGTLVTVSS
VL: DIQMTQSPSSLSASVGDRVTITCRASSSVSSTYLHWYQQKPGKAPKLWIYTTSTLASGVPSRFSGSGSGTSYTLTISSLQPEDFATYYCQQFSDSTWTFGQGTKLEIKR
notes: as for B1
B4: hz3F10-2.1 (antibody, human IgG4 S228P, kappa, V domains shown)
VH: QVQLVQSGAEVKKPGSSVKVSCKASGYTFSRYWIEWVRQAPGQGLEWMGEFIPGSDTTNYAQKFQGRVTITADISTSTAYMELSSLRSEDTAVYYCARGGLRRMDYWGQGTLVTVSS
VL: DIQMTQSPSSLSASVGDRVTITCRASSSVSSTYLHWYQQKPGKAPKLLIYTTSTLASGVPSRFSGSGSGTDFTLTISSLQPEDFATYYCQQFSESTWTFGQGTKLEIKR
notes: as for B1
B5: hz3F10-1.2 (antibody, human IgG4 S228P, kappa, V domains shown)
VH: QVQLVQSGAEVKKPGSSVKVSCKASGYTFSRYWIEWVRQAPGQGLEWMGEFIPGSDTTNYAQKFQGRVTITAEISTNTAYMELSSLRSEDTAVYYCARGGLRRMDYWGQGTLVTVSS
VL: DIQMTQSPSSLSASVGDRVTITCRASSSVSSTYLHWYQQKPGKAPKLLIYTTSTLASGVPSRFSGSGSGTDFTLTISSLQPEDFATYYCQQFSDSTWTFGQGTKLEIKR
notes: as for B1
B6: hz3F10-5.2 (antibody, human IgG4 S228P, kappa, V domains shown)
VH: QVQLVQSGAEVKKPGSSVKVSCKASGYTFSRYWIEWVRQAPGQGLEWMGEFIPGSDTTNYAQKFQGRVTITAEISTNTAYMELSSLRSEDTAVYYCARGGLRRMDYWGQGTLVTVSS
VL: DIQMTQSPSSLSASVGDRVTITCRASSSVSSTYLHWYQQKPGKAPKLWIYTTSTLASGVPSRFSGSGSGTSYTLTISSLQPEDFATYYCQQFSDSTWTFGQGTKLEIKR
notes: as for B1

Columns and labels:
[1] = target: T1, cynomolgus/rhesus macaque CD47 protein, His Tag (ACRObiosystems, Cat. No. CD7-C52H1) (cynomolgus monkey (cynomolgus/rhesus …, UniProt A0A2K5X523 19-141)); test: Biacore SPR, 25 C, antibody captured on CM5 chip
T1 construct: bought reagent; also called Cynomolgus monkey CD47 protein

[2] = target: T2, human CD47 protein, His Tag (ACRObiosystems, Cat. No. CD7-H5227) (human, UniProt Q08722 19-139); test: Biacore SPR, 25 C, antibody captured on CM5 chip
T2 construct: bought reagent; also called CD47-His; hCD47-His Tag; not shown: His tag

[3] = target: T3, CD47 on the red cell surface (Homo sapiens (Human), UniProt Q08722 19-323); test: flow cytometry on fixed red cells, antibody 1 µg/mL
Method: (§1) Anticoagulated blood was collected and well mixed with an equal amount of normal saline. The mixture was centrifuged at 2000 rpm/min for 5 min, and the supernatant was removed. […] In the first two washings, the mixture was centrifuged at 2000 rpm/min for 5 min, and in the last washing, the mixture was centrifuged at 2000 rpm/min for 10 min, and the supernatant was removed.

CD47 on HL60 cells = CD47 on HL60 cells (UniProt Q08722 19-323, limits assumed); test: cell-based or functional assay
[4] = target: T2, human CD47 protein, His Tag …; test: ELISA, plate coated with CD47-His
Method: An ELISA binding assay was performed based on human CD47 protein and anti-CD47 chimeric antibodies or anti-CD47 humanized antibodies. […] The wells were aspirated, and non-specific binding sites were blocked by adding 100 L/well of a blocking solution (PBS with 1% (w/v) bovine serum albumin (BSA, Sigma, Cat. No. B2064-100G)) and incubating the plate at 37° C. for 1 h. After the 96-well plate was washed three times with a washing buffer (PBS with 0.01% (w/v) Tween 20 (Sigma, Cat. No. P9416-100ML)), 100 μL/well of 1:4 serial dilutions (from 30 g/mL) of anti-CD47 antibodies (see Table 3 for chimeric antibodies, and see Table 4 for humanized antibodies) in blocking solution were added, and the plate was incubated at room temperature for 2 h. […] After the 96-well plate was washed, 100 μL/well of a substrate solution TMB (TIANGEN, Cat. No. PA107-01) was added, and the 96-well plate was incubated at room temperature for 10 min. 100 μL/well of a stop solution (1 M H₂SO₄) was added to stop the reaction. Colorimetric signals were generated and read at 450 nm using a multifunctional microplate reader (manufacturer: PerkinElmer; model: EnVision). Data were analyzed using GraphPad Prism5, and EC₅₀ was calculated.

[5] = target: T3, CD47 on the red cell surface; test: flow cytometry on fixed red cells, antibody 10 µg/mL
Method: as §1

[6] = target: T2, human CD47 protein, His Tag …; test: ELISA, CD47-His coated, competition with Human-SIRPα-mFc
Method: The plate was let stand at 2-8° C. overnight. The wells were aspirated to remove the coating buffer and blocked with 100 μL/well of a blocking solution (PBS with 1% (w/v) bovine serum albumin (BSA, Sigma, Cat. No. B2064-100G)) by incubation at 37° C. for 1 h. The 96-well plate was washed with a washing buffer (PBS with 0.01% (w/v) Tween 20 (Sigma, Cat. No. P9416-100ML)). […] After the 96-well plate was washed with PBS washing buffer, anti-CD47 chimeric antibodies or anti-CD47 humanized antibodies (see Table 8 for chimeric antibodies, and see Table 9 for humanized antibodies) were added. 4-fold dilution was performed with PBS buffer from a starting concentration of 20 μg/mL, with 8 gradients obtained. The plate was incubated at room temperature for 1.5 h. […] After the 96-well plate was washed with PBS buffer, 100 μL/well of a substrate solution TMB (TIANGEN, Cat. No. PA107-01) was added, and the plate was incubated at room temperature for color development for 10 min. 100 μL/well of 1 M H₂SO₄ was added to stop the reaction. Colorimetric signals were generated and read at 450 nm using a multifunctional microplate reader (manufacturer: PerkinElmer; model: EnVision). Data were analyzed using GraphPad Prism5, and EC₅₀ was calculated.

[7] = target: T4, human CD47 protein on CHO-K1-CD47 cells (human, UniProt Q08722 19-323); test: cell binding, CHO-K1-CD47 cells, high content imaging
T4 construct: whole, on cells; also called CHO-K1 cells expressing human CD47 protein
Method: A cell binding assay of anti-CD47 antibodies (chimeric or humanized) was performed based on the binding to a CHO-K1 cell line stably expressing CD47. CHO-K1-CD47 cells (CHO-K1 cells expressing human CD47 protein) were added to each well of a 96-well plate (Eppendorf, Cat. No. C030730.119) at 1.2×10⁴ cells per well and incubated with anti-CD47 antibodies (20 μg/mL, 1:4 dilution in PBS) at room temperature for 1-2 h. […] The cells were incubated at room temperature for 30 min. The cells were washed three times with PBS buffer. A nuclear dye Hoechst (Sigma, Cat. No. B2261) was diluted with PBS buffer at a dilution ratio of 1:500 and then added to each well at 100 μL/well for staining for 10 min. The cells were washed 3 times with PBS and analyzed using a high content screening system (manufacturer: PerkinElmer; model: Operetta).

T1 sequence (A0A2K5X523 entry or part of it limits assumed): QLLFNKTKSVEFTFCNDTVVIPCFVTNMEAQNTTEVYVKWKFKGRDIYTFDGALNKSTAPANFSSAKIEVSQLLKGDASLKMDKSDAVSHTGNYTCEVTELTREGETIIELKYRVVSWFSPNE

Binder	Kd [1] [nM]	Kd [2] [nM]	MFI [3] [MFI]	rate of phagocytosis, antibody 1 µg/mL (CD47 on HL60 cells) [%]	rate of phagocytosis, antibody 10 µg/mL (CD47 on HL60 cells) [%]	EC50 [4] [µg/mL]	MFI [5] [MFI]	IC50 [6] [µg/mL]	EC50 [7] [µg/mL]
B1	1.31	0.946	4450	41.2	43.1	0.07	50500	1.53	0.876
B2	1.14	0.779	5610	44.2	34.7	0.106	56100	1.73	1.12
B3	1.3	0.96	7400	50.5	58.5	0.0993	50600	1.7	1.48
B4	1.17	0.836	8450	47.2	55.2	0.0809	53200	1.61	1.07
B5	1.33	0.904	6250	55.5	38.9	0.125	56700	1.69	1.27
B6	1.4	0.896	5130	47.1	29.6	0.106	53300	1.82	1.26
